The supplement of paper PMC9170038

Test system: MS2 coat protein
Assay: apparent KD of MS2 coat protein; designed switch direction (-1 OFF switch, 1 ON switch): 1; higher = weaker reporter binding
Summary of the method: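 Designed RNA switches were transcribed on Illumina chips by stalled E. coli RNA polymerase and titrated with SNAP-549-labelled MS2 coat protein from 0.7 or 1.5 nM, doubling to 3 µM. Step length ran from 0.8–1.5 h at the lowest concentration to 10–20 min at the highest. The apparent KD is the median over clusters for each design, from curve-fitted normalised cluster fluorescence.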

[1] = input ligand: microRNA oligo, concentration not stated
[2] = Eterna round: R95, input ligand: FMN 200 uM
[3] = Eterna round: R95, input ligand: microRNA oligo, concentration not stated
[4] = Eterna round: R95, input ligand: none

Sequence | apparent KD of MS2 coat protein (input ligand: FMN 200 uM) [nM] | apparent KD of MS2 coat protein [1] [nM] | apparent KD of MS2 coat protein (input ligand: none) [nM] | apparent KD of MS2 coat protein [2] [nM] | apparent KD of MS2 coat protein [3] [nM] | apparent KD of MS2 coat protein [4] [nM]
GCGAGCGUACUUGCUACAUGAGGAUCACCCAUGUCUGUUGGACAGGAUAUGGUACCGUUUCGGUACCAGAAGGGUUCAUCAUGU [JL SSNG3 3.74] (Eterna round: R96, puzzle: Same State NG 3) | 439 | 74 | 262 | – | – | –
UUCACCUUUUUUUACAUGAGGAUCACCCAUGUUUUCCCUACGUAGGAUAUCGAUGCUUGAUUGUUCGAGAAGGACGUUGUAAGU [JR_SSND3_Sub056] (Eterna round: R96, puzzle: Same State NG 3) | 29.6 | 20.7 | 33.7 | – | – | –
GCUCGACGUAUGGCCUACAUGAGGAUCACCCAUGUGACUGGGCAGGAUAUCUAAAUGCAGAAUGUAGAGAAGGGCCCGUCGAGC [SameState NG3 #49] (Eterna round: R96, puzzle: Same State NG 3) | 163 | 99.6 | 188 | – | – | –
CCGUAGAUGGAAGGAUAUGGAGCCUUAUUGGCUCCAGAAGGUUCAAAACAUGAGGAUCACCCAUGUACGGCGGUCAAUAGACCG [Eli NG1ss - 82] (Eterna round: R96, puzzle: Same State NG 1) | 111 | 226 | 245 | – | – | –
UUAACAUGAGGAUCACCCAUGUAUACGGAGUUUGCAAUUUGACAGGAUAUUGAAGAUCUAUAUAGCAAGAAGGGUCGUUAGUCU [JR_SSNG3_Sub006] (Eterna round: R96, puzzle: Same State NG 3) | 47.5 | 32.6 | 44.7 | – | – | –
ACAGCCGGCACUGAGGAUAUUCAUAUUAAAACAUGAGGAUCACCCAUGUAGGCCAGAAGGCCUUGGGAGAAGGCAGGUCGGCUGA [Mat - Same State 2 - Mod of UCT - D64] (puzzle: Same State 2) | – | – | – | 18.8 | 229 | 391
AAUAUACAUGAGGAUCACCCAUGUUAGUAAAUGACAGGAUAUGGAAUAAAUAAAUAAUAACCAGAAGGGUCUAAUA [JMF's solution 2] (puzzle: Same State 1) | – | – | – | 16 | 24.9 | 28.5
UUGUUUUGUAAUUAACAUGAGGAUCACCCAUGUCUUGGCUCAGAGGAUAUACAUGUUUGAUUGUAGUAGAAGGCUGAAUGUUGU [JR_SSNG3_Sub094] (Eterna round: R96, puzzle: Same State NG 3) | 95.2 | 96 | 131 | – | – | –
GCUUCACAUGAGGAUCACCCAUGUCUUCGGAGUCGAGGAUAUGGUCACUGUAAACAGUGGCCAGAAGGCGAGGAGC [SS1 - Son of Teenbexe v7] (puzzle: Same State 1) | – | – | – | – | 46.4 | –
GACCGCGAGGAAGGAUAUGGAGCCUUAUUGGCUCCAGAAGGUCCAUAAAGGACAUGAGGAUCACCCAUGUGGUGUGAAGCGGUC [Fiskers NG1ss - 18] (Eterna round: R96, puzzle: Same State NG 1) | 65.5 | 407 | 627 | – | – | –
UAUUAGAUCCGAGGAUAUCCUUUUUUCUUACAUGAGGAUCACCCAUGUAAAGGGAUUGAGUUGUAGGAGAAGGCGGAUUUAGUU [JR_SSNG2_Sub058] (Eterna round: R96, puzzle: Same State NG 2) | – | 24.1 | – | – | – | –
UGUUGUAUUACAGGAUAUCUAUUGUUUUUAUAUAGAGAAGGGUAUUCACAUGAGGAUCACCCAUGUAUAUACGAGGAAGUUGUG [JMF's solution 84] (Eterna round: R96, puzzle: Same State NG 1) | – | 33.2 | – | – | – | –
UUGCUCGUGUGAGGAUAUGCAGCCGUUUCGGCUGCAGAAGGUACUAUAAUACAUGAGGAUCACCCAUGUCUCUGUUGUUUCGUG [salish99_SSNG1_r04_931] (Eterna round: R96, puzzle: Same State NG 1) | 27.3 | 21 | 27.5 | – | – | –
UGUCCAGCCUGAGCUGGACAAAAGCAUGUACAUGAGGAUCACCCAUGUUCAUGUACAAGCUUUUUGCUCGUCUUACC [salish99_208a_r3_083] (puzzle: Sensor for hsa-mir-208a) | – | – | – | 464 | 15.9 | 610
AUAAAACAUGAGGAUCACCCAUGUCAACAAAGUCGAGGAUAUGGGCAAAUAAAAUAAGAUCCAGAAGGCGAAUAAU [salish99_ss1_r3_016] (puzzle: Same State 1) | – | – | – | 97.3 | 36.3 | 92.7
GCUCGAUGAGAGUCCUACAUGAGGAUCACCCAUGUAUGUGGGCAGGAUAUCUACAUGCAGAAUGUAGAGAAGGGCCCGUCGAGC [SameState NG3 #57] (Eterna round: R96, puzzle: Same State NG 3) | 35.2 | 106 | 187 | – | – | –
UGUUGUAUUACAGGAUAUCUAUUAGUAUUAUUUAGAGAAGGGUAUUCACAUGAGGAUCACCCAUGUAUAUACGAGGAAGUUGUG [JMF's solution 89] (Eterna round: R96, puzzle: Same State NG 1) | – | 34.8 | – | – | – | –
GCUAGUAUUAUUGUCAACAUGAGGAUCACCCAUGUAUGUUGGCAGGAUAUCGUUUGCUUUGCAAACGAGAAGGGCUAAACUAGC [JL SSNG3 1.04] (Eterna round: R96, puzzle: Same State NG 3) | 61.2 | 145 | 231 | – | – | –
UGAAUAGUUACAGGAUAUCAUGCGAAAAUUGCGUGAGAAGGGUGGGUGUUGUGCGCAAAGUGCUACAUGAGGAUCACCCAUGUU [SameState NG1 #39] (Eterna round: R96, puzzle: Same State NG 1) | 278 | 23.1 | 277 | – | – | –
GAGCCAGUCCGAGGAUAUUCAUAUAAAUUAAAUACAUGAGGAUCACCCAUGUAGGCGGAGCCUUGGGAGAAGGCGGACUGGCUC [Xeonanisa>>5] (Eterna round: R96, puzzle: Same State NG 2) | 22.7 | 35.9 | 58.4 | – | – | –
CCGUAGAUGGAAGGAUAUGGAGCCUUAUUGGCUCCAGAAGGUUCAAUACAUGAGGAUCACCCAUGUUCGGCGGUCAAUAGACCG [Eli NG1ss - 81] (Eterna round: R96, puzzle: Same State NG 1) | 26.9 | 32 | 66.6 | – | – | –
GGAGCCGGCCUAGGAUAUUUCAUACAAAAACAUGAGGAUCACCCAUGUAGGCCAGAAGGCCUUGGGAAGAAGGAGGUCGGCUCC [Loop Effect - C25] (Eterna round: R96, puzzle: Same State NG 2) | 14.5 | 16.9 | 34.2 | – | – | –
GUUACAUGAGGAUCACCCAUGUAUGUGUGGGAGUAAGUGUCUUAGGAUAUCUAUUAUUUAAUUUGAGAGAAGGAAGAUUGUUGU [JMF's solution 28] (Eterna round: R96, puzzle: Same State NG 3) | 107 | 97.7 | 107 | – | – | –
